Assay results from patent US20080267980A1 (MUSC FOUNDATION FOR RESEARCH DEVELOPMENT, published 2008).
Blank lines part the entries; values can stand above or below the binder they belong to.

Tests used:
Human C3dg-biotin [1] = target: T1, Human C3dg-biotin (human, UniProt P01024 955-1303, biotin (site not stated) in the SPR experiments); experiment: ELISA, wells coated with purified C3dg, anti-complement inhibitor antibodies
T1 construct: domain: C3dg; In the ELISA it is purified C3dg coated on wells; also called C3dg ligand; CR2 ligand C3dg
Description: ELISA experiments were conducted as previously described. In ELISA experiments, CR2-containing constructs were added to wells coated with purified C3dg. Binding was detected by means of anti-complement inhibitor antibodies and enzyme-conjugated secondary antibodies. All CR2 containing constructs, but not sCD59 and sDAF bound to C3d.

Human C3dg-biotin [2] = target: T1, Human C3dg-biotin; experiment: SPR, biotinylated C3dg on streptavidin BIAcore chip
Description: (§1) Kinetic analysis of the interaction of the CR2 fusion proteins with C3dg-biotin was performed using surface plasmon resonance (SPR) measurements made on a BIAcore 3000 instrument. Human C3dg-biotin, prepared as described (36), was bound to the surface of BIAcore streptavidin (SA) sensor chips by injecting C3dg-biotin at 50 μg/ml over the surface of one flow cell of the chip at 2 μl/minute for 20 minutes. The flow buffer was 0.5×PBS+0.05% Tween 20. The SPR signal from captured C3dg generated BIAcore response units ranging from 250-500. Control streptavidin-coated flow cells were run in the absence of protein. Binding was evaluated over a range of CR2 fusion protein concentrations (15.6-500 nM) in 0.5×PBS, 0.05% Tween 20 at 25° C. at a flow rate of 25 μl/minute. CR2 fusion protein samples were injected in 50 μl aliquots using the kinject command. Association of the fusion proteins with the ligand was monitored for 120 seconds, after which the complex was allowed to dissociate in the presence of buffer only for an additional 120 seconds. […] Binding data were fitted to a 1:1 Langmuir binding model using BIAevaluation Version 3.1 software (BIAcore) and evaluated for best fit by low residual and χ² values. […]
(§2) A comparison of the affinity of the different recombinant fusion proteins for the CR2 ligand C3dg was determined by surface plasmon resonance measurements. […]

Human C3dg-biotin [3] = target: T1, Human C3dg-biotin; experiment: SPR (referred to)
Description: as §1, §2

Human C3dg-biotin [4] = target: T1, Human C3dg-biotin; experiment: SPR, C3dg-biotin captured on streptavidin chip
Description: as §1, §2

T1 sequence (P01024 955-1303 limits assumed): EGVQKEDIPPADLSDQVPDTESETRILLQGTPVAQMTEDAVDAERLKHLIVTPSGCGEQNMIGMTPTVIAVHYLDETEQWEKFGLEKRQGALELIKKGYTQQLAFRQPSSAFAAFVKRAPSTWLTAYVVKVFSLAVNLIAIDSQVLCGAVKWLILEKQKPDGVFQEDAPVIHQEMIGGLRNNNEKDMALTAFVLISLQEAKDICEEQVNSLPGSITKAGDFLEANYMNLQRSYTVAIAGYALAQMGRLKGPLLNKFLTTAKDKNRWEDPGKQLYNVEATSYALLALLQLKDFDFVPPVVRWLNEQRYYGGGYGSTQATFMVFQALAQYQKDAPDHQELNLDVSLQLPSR

B1: DAF-CR2 (other)
chain: DCGLPPDVPNAQPALEGRTSFPEDTVITYKCEESFVKIPGEKDSVICLKGSQWSDIEEFCNRSCEVPTRLNSASLKQPYITQNYFPVGTVVEYECRPGYRREPSLSPKLTCLQNLKWSTAVEFCKKKSCPNPGEIRNGQIDVPGGILFGATISFSCNTGYKLFGSTSSFCLISGSSVQWSDPLPECREIYCPAPPQIDNGIIQGERDHYGYRQSVTYACNKGFTMIGEHSIYCTVNNDEGEWSGPPPECRSSGGGGSGGGGSGGGGSISCGSPPPILNGRISYYSTPIAVGTVIRYSCSGTFRLIGEKSLLCITKDKVDGTWDKPAPKCEYFNKYSSCPEPIVPGGYKIRGSTPYRHGDSVTFACKTNFSMNGNKSVWCQANNMWGPTRLPTCVSVFPLECPALPMIHNGHHTSENVGSIAPGLSVTYSCESGYLLVGEKIINCLSSGKWSAVPPTCEEARCKSLGRFPNGKVKEPPILRVGVTANFFCDEGYRLQGPPSSRCVIAGQGVAWTKMPVC
notes: also called human DAF-CR2; fusion protein with CR2 at the C-terminus
binding result (Human C3dg-biotin [1]): binds

B3: CR2-CD59 (other)
chain: ISCGSPPPILNGRISYYSTPIAVGTVIRYSCSGTFRLIGEKSLLCITKDKVDGTWDKPAPKCEYFNKYSSCPEPIVPGGYKIRGSTPYRHGDSVTFACKTNFSMNGNKSVWCQANNMWGPTRLPTCVSVFPLECPALPMIHNGHHTSENVGSIAPGLSVTYSCESGYLLVGEKIINCLSSGKWSAVPPTCEEARCKSLGRFPNGKVKEPPILRVGVTANFFCDEGYRLQGPPSSRCVIAGQGVAWTKMPVCSGGGGSLQCYNCPNPTADCKTAVNCSSDFDACLITKAGLQVYNKCWKFEHCNFNDVTTRLRENELTYYCCKKDLCNFNEQLEN
notes: also called CR2-human CD59; fusion protein with CR2 at the N-terminus
binding result (Human C3dg-biotin [3]): binds

Second part, the binder after the results:

binding result (Human C3dg-biotin [2]): no binding
B2: soluble CD59 (other, human, UniProt P13987 26-102, looked up)
chain: LQCYNCPNPTADCKTAVNCSSDFDACLITKAGLQVYNKCWKFEHCNFNDVTTRLRENELTYYCCKKDLCNFNEQLEN
notes: also called sCD59; untargeted sCD59

binding result (Human C3dg-biotin [4]): no binding
B4: soluble DAF (other, human, UniProt P08174 35-283, looked up)
chain: DCGLPPDVPNAQPALEGRTSFPEDTVITYKCEESFVKIPGEKDSVICLKGSQWSDIEEFCNRSCEVPTRLNSASLKQPYITQNYFPVGTVVEYECRPGYRREPSLSPKLTCLQNLKWSTAVEFCKKKSCPNPGEIRNGQIDVPGGILFGATISFSCNTGYKLFGSTSSFCLISGSSVQWSDPLPECREIYCPAPPQIDNGIIQGERDHYGYRQSVTYACNKGFTMIGEHSIYCTVNNDEGEWSGPPPEC
notes: range 1-249; also called sDAF; untargeted sDAF
